According to patent publication US20030044400A1, “Composition and method for treating cells” (priority 2001, published 2003):

Experiments:
[1] = system: PC-3 induced tumor; experiment: Prostate tumor (PC-3) in immunodeficient mice; format: in vivo, immunodeficient mice (TACN: NH (S)—NuFDF homozygous males); conditions: for reduction of prostate tumor: immunodeficient mice, 5 mg/30 g body weight, 5 days consecutive ip injection, vs control
Procedure: Another set of experiments were designed using immunodeficient mice (TACN: NH (S)—NuFDF homozygous males 3-4 wks old). The 2×10^7 PC-3 cells were implanted and allowed to grow for 6 wks. The mice in the control group received 0.5 ml saline intraperitoneally for 5 days and in the treated group received 0.5 ml Fetuin for 5 days.
The mice divided into 5 each group in this study were TACN:NH (S)—NuFDF homozygous males 3-4 weeks old and weighed an average of 22 g at the start of the experiment and 30 g at the termination of the experiment six weeks later. The animals were induced to prostate tumor formation by inoculating 2×10^7 PC-3 cells in 0.1 ml PBS suspension on the upper half of the dorsal thorax of the mouse. The tumor will be allowed to grow for 6 weeks. The mice in the control group will receive 0.1 ml saline intraperitoneally for 5 days and the mice in the treated group will receive 0.02 ml, 0.1 ml and 0.2 ml of Fetuin 10 mg/ml per day for 5 days. Treatment will start the day after tumor inoculation. Tumor will be weighed at the end of the experiment when the mice will be sacrificed for subsequent histopathology. Animals will be monitored daily for signs of tumor and/or any toxic effects from the test material.

[2] = system: immune system (splenic T- and B-cells, response to SRBC); conditions: mouse, in vivo
Procedure: The Balb/C mice weighed 20-30 g with six to eight weeks of age and divided equally between male and female are used. Fetuin is administered IV or IP to each group of six animals either a single dose or multiple doses ranging from 0.05 mg to 5 mg per 20 g body weight. The volume of each injection is 0.2 ml. Phosphate buffered saline is used as the control and dilution vehicle.
Flow cytometric characterization of splenic T- and B-cells in Fetuin treated mice: T cells of mice can be recognized by the presence of Thy 1.2 or Thy 1.1 (depending on the genotype of the mouse), receptors isolated on the surface of peripheral T cells (lymph node, spleen and blood) as well as thymic epithelia.

[3] = Determination of LD50 of Fetuin in Rats; format: in vivo, Sprague-Dawley albino rats
Procedure: The Sprague-Dawley albino rats weighed 170-210 g and were divided into 4 groups, each group including 5 males and 5 females. The control group received 1 ml of saline intraperitoneally for 5 days. The other three groups were given 8.35 mg, 25 mg and 250 mg per kg body wt. of Fetuin 0.1 g/ml. All volumes were made up to 1 ml with sterile pyrogene free saline. The observation period was a least 14 days. If a visible toxic reaction occurs the observation period may be increased until visible signs of toxicity disappear. If any deaths occur during this period, the animal will be immediately autopsied to determine cause of death. During the observation period a careful clinical examination is made each day. These observations include skin and fur, eyes and mucous membranes, respiratory system, circulatory system, autonomic and central nervous system, somatomator activity and behavior patterns. Particular attention will be directed to observation of tremors, convulsions, salivation, diarrhea, lethargy, sleep or coma. Individual weights of the animals are determined shortly before the test substance is administered, and weekly thereafter. Any weight changes are recorded. At the end of the test, the surviving animals are weighed and sacrificed. Prior to sacrifice, blood is drawn from each animal to determine the serum levels of fetuin. After sacrifice, a gross necropsy is done on all animals. Any gross pathological changes are recorded and pertinent tissues preserved in 10% formalin for subsequent histopathology. The observations recorded are tabulated to see if there is any correlation between mortality and/or symptoms and the dose. The LD50 for each sex is determined at 14 days, using the method of Litchfield and Wilcoxon. A dose mortality curve and slope is determined if data justify it. A table of body weight gains or loses is constructed. Necropsy finding is reported.

[4] = system: PC-12 cells; experiment: Apoptosis of PC-12 cells in the presence of serum; format: cell-based; conditions: PC-12 cells in 10% horse serum+5% FBS; 5 uM Fetuin
Procedure: PC-12 cells were seeded in 10% heat-inactivated horse serum+5% FBS+RPMI 1640 media for 1-2 days and treated with 5 uM Fetuin. […] The apoptosis-inducing activity of Fetuin at high concentration can be applied in therapy of neuroblastoma.

[5] = system: LNCaP cells; experiment: Fetuin-induced apoptosis, Hoechst staining confirmed by MTS assay; format: cell-based, Human
Procedure: The purified fetuin was tested on various cancer cell lines. […] The DNA condensation and breakage of nuclei which are the characteristics for apoptosis were observed by staining the cell with Hoechst dye at 0.1 ug/ml.
Fetuin purified by modified Spiro method was further incubated with Zinc Acetate or Barium Acetate (0.25M) at room temperature for 1 hr. Free ions were removed by repetitive concentration against 20 volumes of PBS three times. Fetuin, Zn-charged fetuin and Ba-charged fetuin (5 uM) and PBS were then separately incubated with LNCaP cells for 4 hr. Percent of cells under apoptosis was determined by Hoechst staining and confirmed by MTS assay. Each data represents the average of two assays. Zn-charged or Ba-charged fetuin may contain free Zn or Ba (about 30 uM). However, all the cell lines are not affected by Zn or Ba alone at all concentrations tested (up to 66 uM).
Various concentrations of Zn-charged fetuin prepared as described were incubated with cell lines for 6 hr. Percent of cell under apoptosis was determined by Hoechst staining and confirmed by MTS assay. The concentration of Zn-charged fetuin for the induction of 50% of cells under apoptosis (LD50) was determined. Each data represents the average of three assays.

[6] = immunodeficient mice with PC-3, 0.5 ml Fetuin ip for 5 days, 9 mice
[7] = rats, 5 female, 8.35 mg/kg Fetuin
[8] = rats, 5 female, 8.35 mg/kg Fetuin ip
[9] = rats, 5 female, 25 mg/kg Fetuin
[10] = rats, 5 female, 25 mg/kg Fetuin ip
[11] = rats, 5 female, 250 mg/kg Fetuin
[12] = rats, 5 female, 250 mg/kg Fetuin ip
[13] = rats, 5 male, 8.35 mg/kg Fetuin
[14] = rats, 5 male, 8.35 mg/kg Fetuin ip
[15] = rats, 5 male, 25 mg/kg Fetuin ip
[16] = rats, 5 male, 250 mg/kg Fetuin ip

## Fetuin: Fetal bovine fetuin purified from fetal bovine serum by modified Spiro method; 60 Kd glycoprotein, homologue of alpha 2-HS glycoprotein
[1]; [6]
  Ave. Mouse Weight (gm): 30.6 gm
  Ave. Tumor Weight (gm): 0 gm
  Tumor Incidence (%): 0%
[1]
  reduction of prostate tumor: up to 100%
[1]; listed as Fetal fetuin
  reduction of prostate tumor: 100%
[2]
  cell surface density of s-Ig on the B-cells: no significant differences
  fraction of lymphocytes which were B-cells (s-Ig+): no differences between treatment groups
  fraction of splenic lymphocyte that were T-cells: remained constant
  mean level of expression of Thy 1.2: did not differ significantly
[3]; all of the rats, 8.35, 25 and 250 mg per kg
  necropsy: appeared to be normal
[3]; [7]
  Spleen Wt. (gm): 0.513 gm
  Thymus Wt. (gm): 0.481 gm
[3]; [8]
  Final Wt. (gm): 203.5 gm
  Initial Wt. (gm): 170.2 gm
  Wt. Gain Total (gm): 33.3 gm
[3]; [9]
  Spleen Wt. (gm): 0.714 gm
  Thymus Wt. (gm): 0.485 gm
[3]; [10]
  Final Wt. (gm): 218.3 gm
  Initial Wt. (gm): 190.3 gm
  Wt. Gain Total (gm): 28.0 gm
[3]; [11]
  Spleen Wt. (gm): 0.578 gm
  Thymus Wt. (gm): 0.619 gm
[3]; [12]
  Final Wt. (gm): 201.7 gm
  Initial Wt. (gm): 164.2 gm
  Wt. Gain Total (gm): 37.5 gm
[3]; [13]
  Spleen Wt. (gm): 0.745 gm
  Thymus Wt. (gm): 0.599 gm
[3]; [14]
  Final Wt. (gm): 283.7 gm
  Initial Wt. (gm): 233.5 gm
  Wt. Gain Total (gm): 50.2 gm
[3]; rats, 5 male, 25 mg/kg Fetuin
  Spleen Wt. (gm): 0.796 gm
  Thymus Wt. (gm): 0.525 gm
[3]; [15]
  Final Wt. (gm): 227.5 gm
  Initial Wt. (gm): 174.5 gm
  Wt. Gain Total (gm): 53.0 gm
[3]; rats, 5 male, 250 mg/kg Fetuin
  Spleen Wt. (gm): 0.777 gm
  Thymus Wt. (gm): 0.595 gm
[3]; [16]
  Final Wt. (gm): 253.3 gm
  Initial Wt. (gm): 186.5 gm
  Wt. Gain Total (gm): 66.8 gm
[3]; rats, 8.35, 25 and 250 mg per kg ip, observation at least 14 days
  mortality: no mortality
[4]
  apoptosis-inducing activity: apoptosis-inducing activity was observed
[5]; LNCaP, Zn-charged fetuin, 6 hr, concentration for 50% of cells under apoptosis, average of three assays
  LD50 of Fetuin-induced Apoptosis: 1 µM
[5]; LNCaP, purified fetuin, Hoechst dye 0.1 ug/ml
  induction of apoptosis: strongly induced apoptosis
[5]; Pederson Method (Sigma) vs modified Spiro method
  apoptotic activity by method of preparation: induced apoptosis
[5]; Substitution of Zinc by Barium
  apoptosis-inducing activity: completely abolished
[5]; fetal vs mature fetuins at the same concentration
  apoptosis-inducing activity in LNCaP cells: strongly induced apoptosis
